Measured values from US20050106660A1 (Pieris, published 2005).

Legend:
hemoglobin (Sigma) [1] = biological target: T1, hemoglobin (Sigma); experiment: SPR (BIAcore X), hemoglobin immobilized on CM5 chip, steady-state values fitted
T1 construct: Immobilized by amine coupling on a CM5 chip (ca. 5000 RU)
Description: (§1) The binding affinity of the anticalin HbgA to hemoglobin was determined by surface plasmon resonance (SPR) using the BIAcore X system (BIACORE). Hemoglobin (100 μg/ml, dissolved in 10 mM maleate, pH 6.0) was immobilized at an amount of ca. 5000 resonance units (RU) to the surface of one flow channel on a CM5 sensor chip (BIACORE) using the amine coupling kit (BIACORE) according to the manufacturer's instructions. Unreacted groups on the biosensor chip surface were blocked with 1 M ethanolamine hydrochloride-NaOH pH 8.5. […] The concentration of HbgA and also of ApoD were determined by absorption at 280 nm using a calculated extinction coefficient of 54600 M⁻¹ cm⁻¹ and 34150 M⁻¹ cm⁻¹, respectively (Gill and von Hippel, Anal. Biochem. 182 (1989), 319-326). […] The binding of HbgA to hemoglobin, immobilized on the sensor chip, was measured by applying each 75 μl of these protein solutions. Steady state resonance values were detected for the channel with the immobilized hemoglobin for each concentration applied. For each measurement the resonance value that was due to buffer effects and simultaneously measured for the second channel of the sensor chip, was subtracted, and the resulting difference value was plotted against the applied concentration. […]

hemoglobin (Sigma) [2] = biological target: T1, hemoglobin (Sigma); experiment: not stated there (affinity measured by SPR in Example 5)
Description: as §1

[3] = biological target: T2, bovine serum albumin (BSA, Sigma) (bovine, UniProt P02769 25-607); experiment: SPR (BIAcore X), BSA immobilized on CM5 chip, steady state
T2 construct: Immobilized by amine coupling on a CM5 chip (ca. 5000 RU)
T2 sequence (P02769 25-607 limits assumed): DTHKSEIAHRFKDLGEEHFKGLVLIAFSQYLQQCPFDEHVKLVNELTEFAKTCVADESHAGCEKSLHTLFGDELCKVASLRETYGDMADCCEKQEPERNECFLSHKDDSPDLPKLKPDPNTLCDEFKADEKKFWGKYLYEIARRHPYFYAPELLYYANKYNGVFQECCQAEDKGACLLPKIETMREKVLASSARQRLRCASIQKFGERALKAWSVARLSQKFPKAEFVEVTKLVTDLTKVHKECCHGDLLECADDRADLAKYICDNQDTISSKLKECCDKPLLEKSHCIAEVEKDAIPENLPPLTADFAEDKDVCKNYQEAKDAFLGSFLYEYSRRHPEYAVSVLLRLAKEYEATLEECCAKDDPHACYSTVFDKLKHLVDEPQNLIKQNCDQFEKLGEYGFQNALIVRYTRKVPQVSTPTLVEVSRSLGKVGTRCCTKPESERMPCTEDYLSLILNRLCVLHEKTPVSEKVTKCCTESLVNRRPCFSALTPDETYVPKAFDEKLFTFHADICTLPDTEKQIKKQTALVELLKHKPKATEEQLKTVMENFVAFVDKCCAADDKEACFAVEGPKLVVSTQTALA

Kd (hemoglobin (Sigma) [1]): 2.2 µM | Ka (hemoglobin (Sigma) [2]): > 1e+06 M⁻¹ | binding result [3]: no binding
B1: anticalin HbgA (mutein of human apolipoprotein D), purified, with C-terminal Strep-Tag II (designed binder)
chain: QAFHLGKCPNPPVQENFDVNKYPGRWYEIEKIPQFVWMGRCIQANYSLMENGKIKVLNQFLRITLDVWQIEGEATPVNLTEPAKLEVKEGLGDPSAPYWILATDYENYALVYSCESFLWLFHWDFAWILARNVALPPETVDSLKNILTSNNIDVKKMTVTDQVNCPKLS
notes: The amber codon at position 34 was replaced by a Gln codon; Scaffold carries Leu23Pro, Cys116Ser, Pro133Val, Asn134Ala; also called mutein HbgA; not shown: Strep-Tag II fused to the C-terminus (expression from pApoD10)
